Here are results for 125 sequences from the supplement of paper PMC9112550, “Optimization of the antimicrobial peptide Bac7 by deep mutational scanning” (BMC Biology, 2022).
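Further: peptides expressed intracellularly from a pBAD plasmid library in pooled LB shake-flask culture, induced with 0.3% L-arabinose, DNA abundance read by NGS, three biological replicates, DESeq2 with apeglm shrinkage.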

The subject of the series is Escherichia coli TOP10. The experiment in a line: shrunken log2 fold change of peptide-encoding DNA abundance (4.5 h post-induction vs induction); higher = less antimicrobial activity (less host growth inhibition). To be noted: time post-induction: 4.5 h; library: site-saturation at positions 5, 18, 19, 20.
For the sequence RRIRHRPPRLPRPRPRPCTPPRP, the “shrunken log2 fold change” value is -0.382.

As for RRIRPRPPRLPRPRPRPTPCPRP, the “shrunken log2 fold change” value worked out at 0.365.

As to RRIRHRPPRLPRPRPRPATMPRP, the “shrunken log2 fold change” value is -0.123.

For the sequence RRIRFRPPRLPRPRPRPMYNPRP, the “shrunken log2 fold change” value was -0.294.

In the case of RRIRCRPPRLPRPRPRPRLQPRP, the “shrunken log2 fold change” value came to 0.425.

With RRIRFRPPRLPRPRPRPKTRPRP, the “shrunken log2 fold change” value turned out to be 0.277.

As to RRIRSRPPRLPRPRPRPMCEPRP, the “shrunken log2 fold change” value was -0.0274.

Consider RRIRGRPPRLPRPRPRPASTPRP, for which the “shrunken log2 fold change” value turned out to be 0.653.

With RRIRARPPRLPRPRPRPFWMPRP, the “shrunken log2 fold change” value turned out to be 1.14.

Consider RRIRGRPPRLPRPRPRPRKFPRP, for which the “shrunken log2 fold change” value was determined as 0.399.

On to RRIRHRPPRLPRPRPRPASPPRP, for which the “shrunken log2 fold change” value was 0.158.

Regarding RRIRERPPRLPRPRPRPHECPRP, the “shrunken log2 fold change” value was -0.0253.

For RRIRKRPPRLPRPRPRPPKWPRP, the “shrunken log2 fold change” value was determined as 0.0966.

With RRIRRRPPRLPRPRPRPTEWPRP, the “shrunken log2 fold change” value came out at 0.446.

With RRIRTRPPRLPRPRPRPFMSPRP, the “shrunken log2 fold change” value turned out to be 0.0219.

In the case of RRIRWRPPRLPRPRPRPTSSPRP, the “shrunken log2 fold change” value is 0.23.

On to RRIRTRPPRLPRPRPRPEVFPRP, for which the “shrunken log2 fold change” value came out at 0.146.

Consider RRIRTRPPRLPRPRPRPAGHPRP, for which the “shrunken log2 fold change” value was -0.0189.

As to RRIRLRPPRLPRPRPRPYGEPRP, the “shrunken log2 fold change” value is -0.0013.

Turning to RRIRFRPPRLPRPRPRPMKAPRP, the “shrunken log2 fold change” value stood at 0.035.

Turning to RRIRDRPPRLPRPRPRPGSRPRP, the “shrunken log2 fold change” value is 0.0273.

Consider RRIRGRPPRLPRPRPRPPMLPRP, for which the “shrunken log2 fold change” value was found to be 0.555.

With RRIRNRPPRLPRPRPRPVMNPRP, the “shrunken log2 fold change” value is -0.075.

With RRIRDRPPRLPRPRPRPPWYPRP, the “shrunken log2 fold change” value was -0.0741.

For the sequence RRIRDRPPRLPRPRPRPWAFPRP, the “shrunken log2 fold change” value is -0.01.

RRIRNRPPRLPRPRPRPLRAPRP: the “shrunken log2 fold change” value was determined as 0.672.

Consider RRIRQRPPRLPRPRPRPDMYPRP, for which the “shrunken log2 fold change” value is 0.0381.

Turning to RRIRQRPPRLPRPRPRPRQLPRP, the “shrunken log2 fold change” value turned out to be 0.0166.

For RRIRNRPPRLPRPRPRPASVPRP, the “shrunken log2 fold change” value was -0.0792.

As for RRIRHRPPRLPRPRPRPSSRPRP, the “shrunken log2 fold change” value was -0.175.

Turning to RRIRDRPPRLPRPRPRPSNYPRP, the “shrunken log2 fold change” value was -0.29.

For the sequence RRIRNRPPRLPRPRPRPMFPPRP, the “shrunken log2 fold change” value is -0.235.

With RRIRTRPPRLPRPRPRPTRLPRP, the “shrunken log2 fold change” value stood at 0.126.

Take RRIRYRPPRLPRPRPRPCYAPRP: the “shrunken log2 fold change” value was -0.00203.

Turning to RRIRARPPRLPRPRPRPPYLPRP, the “shrunken log2 fold change” value was -0.188.

RRIRMRPPRLPRPRPRPEICPRP: the “shrunken log2 fold change” value amounted to 0.00534.

Consider RRIRWRPPRLPRPRPRPGYFPRP, for which the “shrunken log2 fold change” value is -0.152.

With RRIRTRPPRLPRPRPRPHSVPRP, the “shrunken log2 fold change” value was found to be 0.0184.

As to RRIRRRPPRLPRPRPRPKGFPRP, the “shrunken log2 fold change” value is -0.12.

Regarding RRIRVRPPRLPRPRPRPGYTPRP, the “shrunken log2 fold change” value is -0.208.

On to RRIRQRPPRLPRPRPRPQTQPRP, for which the “shrunken log2 fold change” value worked out at 0.025.

As for RRIRSRPPRLPRPRPRPLKPPRP, the “shrunken log2 fold change” value came to 0.0304.

Turning to RRIRDRPPRLPRPRPRPTWCPRP, the “shrunken log2 fold change” value came out at 0.18.

In the case of RRIRMRPPRLPRPRPRPLDAPRP, the “shrunken log2 fold change” value is 1.74.

With RRIRERPPRLPRPRPRPPTRPRP, the “shrunken log2 fold change” value turned out to be 0.254.

As for RRIRKRPPRLPRPRPRPINNPRP, the “shrunken log2 fold change” value is -0.298.

Take RRIRGRPPRLPRPRPRPQGNPRP: the “shrunken log2 fold change” value is 0.236.

Take RRIRGRPPRLPRPRPRPYDTPRP: the “shrunken log2 fold change” value is -0.0956.

Consider RRIRSRPPRLPRPRPRPVFLPRP, for which the “shrunken log2 fold change” value was -0.131.

Regarding RRIRQRPPRLPRPRPRPWTIPRP, the “shrunken log2 fold change” value was -0.142.

Turning to RRIRCRPPRLPRPRPRPHACPRP, the “shrunken log2 fold change” value was -0.281.

For RRIRLRPPRLPRPRPRPMPDPRP, the “shrunken log2 fold change” value is -0.00255.

In the case of RRIRCRPPRLPRPRPRPKSVPRP, the “shrunken log2 fold change” value worked out at 0.0362.

Consider RRIRGRPPRLPRPRPRPHTMPRP, for which the “shrunken log2 fold change” value was -0.175.

Take RRIRKRPPRLPRPRPRPIYIPRP: the “shrunken log2 fold change” value is -0.127.

As to RRIRYRPPRLPRPRPRPADYPRP, the “shrunken log2 fold change” value turned out to be 3.66.

RRIRQRPPRLPRPRPRPTDNPRP: the “shrunken log2 fold change” value is -0.335.

On to RRIRVRPPRLPRPRPRPDRQPRP, for which the “shrunken log2 fold change” value is -0.215.

On to RRIRSRPPRLPRPRPRPFPSPRP, for which the “shrunken log2 fold change” value was -0.168.

As for RRIRSRPPRLPRPRPRPYTRPRP, the “shrunken log2 fold change” value was -0.304.

For RRIRWRPPRLPRPRPRPERDPRP, the “shrunken log2 fold change” value amounted to 0.128.

In the case of RRIRKRPPRLPRPRPRPDSNPRP, the “shrunken log2 fold change” value worked out at 0.0348.

On to RRIRPRPPRLPRPRPRPNWCPRP, for which the “shrunken log2 fold change” value turned out to be 0.0235.

Regarding RRIRSRPPRLPRPRPRPMSVPRP, the “shrunken log2 fold change” value is -0.0847.

Regarding RRIRDRPPRLPRPRPRPWSFPRP, the “shrunken log2 fold change” value amounted to 0.0765.

For the sequence RRIRQRPPRLPRPRPRPFAVPRP, the “shrunken log2 fold change” value is -0.99.

On to RRIRYRPPRLPRPRPRPEFQPRP, for which the “shrunken log2 fold change” value is -0.47.

RRIRDRPPRLPRPRPRPDKNPRP: the “shrunken log2 fold change” value was -0.224.

As for RRIRVRPPRLPRPRPRPDYHPRP, the “shrunken log2 fold change” value is -0.558.

With RRIRARPPRLPRPRPRPPNLPRP, the “shrunken log2 fold change” value was 0.342.

As for RRIRMRPPRLPRPRPRPRDTPRP, the “shrunken log2 fold change” value amounted to 0.964.

With RRIRARPPRLPRPRPRPPMCPRP, the “shrunken log2 fold change” value worked out at 0.00915.

Consider RRIRMRPPRLPRPRPRPMVCPRP, for which the “shrunken log2 fold change” value amounted to 0.204.

As to RRIRDRPPRLPRPRPRPPRCPRP, the “shrunken log2 fold change” value is 0.551.

As for RRIRYRPPRLPRPRPRPLEHPRP, the “shrunken log2 fold change” value was -0.26.

For RRIRIRPPRLPRPRPRPITWPRP, the “shrunken log2 fold change” value is -0.551.

In the case of RRIRKRPPRLPRPRPRPRAYPRP, the “shrunken log2 fold change” value is -0.382.

Consider RRIRYRPPRLPRPRPRPQPIPRP, for which the “shrunken log2 fold change” value is -0.397.

Turning to RRIRFRPPRLPRPRPRPQADPRP, the “shrunken log2 fold change” value amounted to 0.0728.

RRIRIRPPRLPRPRPRPAPPPRP: the “shrunken log2 fold change” value was found to be 0.398.

In the case of RRIRTRPPRLPRPRPRPERIPRP, the “shrunken log2 fold change” value was -0.18.

Regarding RRIRFRPPRLPRPRPRPDREPRP, the “shrunken log2 fold change” value is -0.006.

Regarding RRIRKRPPRLPRPRPRPHDMPRP, the “shrunken log2 fold change” value was determined as 0.0328.

For RRIRERPPRLPRPRPRPLIVPRP, the “shrunken log2 fold change” value was -0.632.

Turning to RRIRMRPPRLPRPRPRPNDNPRP, the “shrunken log2 fold change” value was found to be 0.504.

RRIRHRPPRLPRPRPRPHPIPRP: the “shrunken log2 fold change” value was -0.107.

On to RRIRSRPPRLPRPRPRPTDMPRP, for which the “shrunken log2 fold change” value was determined as 0.0156.

Regarding RRIRIRPPRLPRPRPRPHYCPRP, the “shrunken log2 fold change” value was -0.0772.

With RRIRNRPPRLPRPRPRPGRPPRP, the “shrunken log2 fold change” value is 0.123.

Take RRIRERPPRLPRPRPRPNCQPRP: the “shrunken log2 fold change” value was -0.0295.

On to RRIRPRPPRLPRPRPRPWKSPRP, for which the “shrunken log2 fold change” value stood at 0.0643.

As for RRIRIRPPRLPRPRPRPDNGPRP, the “shrunken log2 fold change” value is -0.375.

As for RRIRQRPPRLPRPRPRPECCPRP, the “shrunken log2 fold change” value was determined as 0.267.

As for RRIRDRPPRLPRPRPRPQSDPRP, the “shrunken log2 fold change” value was -0.0119.

As for RRIRTRPPRLPRPRPRPKETPRP, the “shrunken log2 fold change” value was 0.137.

For RRIRSRPPRLPRPRPRPYQLPRP, the “shrunken log2 fold change” value was -0.149.

RRIRSRPPRLPRPRPRPQAKPRP: the “shrunken log2 fold change” value was 0.0225.

With RRIRPRPPRLPRPRPRPHESPRP, the “shrunken log2 fold change” value came to 0.0891.

RRIRVRPPRLPRPRPRPYEAPRP: the “shrunken log2 fold change” value was -0.157.

In the case of RRIRQRPPRLPRPRPRPSKYPRP, the “shrunken log2 fold change” value is -0.0779.

RRIRARPPRLPRPRPRPKMGPRP: the “shrunken log2 fold change” value turned out to be 0.297.

On to RRIRGRPPRLPRPRPRPHKWPRP, for which the “shrunken log2 fold change” value amounted to 0.183.

For RRIRPRPPRLPRPRPRPWWKPRP, the “shrunken log2 fold change” value is -0.0424.

In the case of RRIRYRPPRLPRPRPRPLGGPRP, the “shrunken log2 fold change” value is -0.0546.

For RRIRHRPPRLPRPRPRPWRGPRP, the “shrunken log2 fold change” value was found to be 0.115.

Regarding RRIRDRPPRLPRPRPRPFPQPRP, the “shrunken log2 fold change” value came to 0.0191.

Regarding RRIRPRPPRLPRPRPRPYAWPRP, the “shrunken log2 fold change” value was -0.152.

Turning to RRIRWRPPRLPRPRPRPCQMPRP, the “shrunken log2 fold change” value was -0.0107.

Consider RRIRDRPPRLPRPRPRPLDMPRP, for which the “shrunken log2 fold change” value is -0.08.

Regarding RRIRSRPPRLPRPRPRPFWPPRP, the “shrunken log2 fold change” value was 0.315.

Regarding RRIRFRPPRLPRPRPRPQRLPRP, the “shrunken log2 fold change” value was determined as 0.106.

For the sequence RRIRPRPPRLPRPRPRPGQRPRP, the “shrunken log2 fold change” value was found to be 0.44.

For RRIRLRPPRLPRPRPRPYPFPRP, the “shrunken log2 fold change” value is -0.137.

In the case of RRIRNRPPRLPRPRPRPRVAPRP, the “shrunken log2 fold change” value amounted to 0.111.

As to RRIRWRPPRLPRPRPRPVFLPRP, the “shrunken log2 fold change” value is -0.0837.

As to RRIRFRPPRLPRPRPRPFQAPRP, the “shrunken log2 fold change” value was -0.91.

As for RRIRKRPPRLPRPRPRPWRLPRP, the “shrunken log2 fold change” value is -0.0807.

As to RRIRARPPRLPRPRPRPHAMPRP, the “shrunken log2 fold change” value was 0.177.

Regarding RRIRDRPPRLPRPRPRPHQCPRP, the “shrunken log2 fold change” value is -0.0903.

RRIRGRPPRLPRPRPRPPLQPRP: the “shrunken log2 fold change” value was 0.641.

For the sequence RRIRKRPPRLPRPRPRPQGRPRP, the “shrunken log2 fold change” value is -0.078.

As to RRIRQRPPRLPRPRPRPNIWPRP, the “shrunken log2 fold change” value was -0.0842.

As to RRIRSRPPRLPRPRPRPTLNPRP, the “shrunken log2 fold change” value is -0.0269.

RRIRGRPPRLPRPRPRPFMTPRP: the “shrunken log2 fold change” value was determined as 0.837.

As for RRIRWRPPRLPRPRPRPWHHPRP, the “shrunken log2 fold change” value was -0.0157.
